Measurements published in paper PMC4726468, “Innovation of a Regulatory Mechanism Modulating Semi-determinate Stem Growth through Artificial Selection in Soybean”.

Columns and labels:
Dt2-6xHis = target: T1, Dt2-6xHis (soybean; cultivar of the cloned CDS not …, UniProt I1N4Q7 1-253); assay: EMSA; DIG Gel Shift Kit (Roche 3353591910), manufacturer's instructions; buffer, salt, pH and temperature not stated; settings: protein: recombinant; tags: 6xHis (pET-DEST42); chain copies: 2; label: digoxigenin; blunt
T1 sequence: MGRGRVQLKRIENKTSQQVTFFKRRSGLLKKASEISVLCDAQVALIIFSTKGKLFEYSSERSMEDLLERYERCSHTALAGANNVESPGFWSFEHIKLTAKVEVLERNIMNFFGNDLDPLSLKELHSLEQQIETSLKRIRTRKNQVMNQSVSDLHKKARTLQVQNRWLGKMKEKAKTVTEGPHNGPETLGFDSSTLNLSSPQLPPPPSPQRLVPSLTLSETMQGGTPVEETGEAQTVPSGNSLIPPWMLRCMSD

GmSOC1-6xHis = GmSOC1-6xHis (soybean; cultivar of the cloned CDS not …, UniProt A0A2K7FY55 1-209); assay: as above; settings: protein: recombinant; tags: 6xHis (pET-DEST42); chain copies: 2; label: digoxigenin; blunt
Chain of GmSOC1-6xHis (A0A2K7FY55 entry or part of it): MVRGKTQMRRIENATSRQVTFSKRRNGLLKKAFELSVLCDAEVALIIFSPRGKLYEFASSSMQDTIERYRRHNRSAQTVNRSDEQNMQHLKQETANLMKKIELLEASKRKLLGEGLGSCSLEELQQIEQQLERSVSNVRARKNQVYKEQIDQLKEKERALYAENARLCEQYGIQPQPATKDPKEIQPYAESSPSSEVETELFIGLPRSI

B1: Dt1-CArG5 (dsDNA)
DNA 1: TCTTTTACCAATATTGGAACTTGG
DNA 2: CCAAGTTCCAATATTGGTAAAAGA
binding result (Dt2-6xHis): binds
binding result (GmSOC1-6xHis): binds

B2: Dt1-CArG1 (dsDNA)
DNA 1: AATATCCAAATTTAGAAATATG
DNA 2: CATATTTCTAAATTTGGATATT
binding result (Dt2-6xHis): binds

B3: Dt1-CArG2 (dsDNA)
DNA 1: CTTATACCAAAATAAGCAACTAAC
DNA 2: GTTAGTTGCTTATTTTGGTATAAG
binding result (Dt2-6xHis): binds
